# Source: patent publication US20210246166A1 (Bayer, published 2021)
# Numbered stars: 1 amine (or outer) side, 2 acyl side, 3 side chain; on linkers, the order of the positions; unused ones are H or OH. Bridge positions count the residues as written; N and C are the ends. Square brackets hold non-standard residues; d marks the D form. Ends that are not written are not given here. * marks the point of attachment. X11 = (S)‑Piperidine‑3‑carboxylic acid, O=C([C@H]1CCCN([*:1])C1)[*:2]; Phe(3-COOH) = N[C@@H](Cc1cccc(C(=O)O)c1)C(=O)O; Benzoyl(3-COOH) = O=C(O)c1cccc(C(=O)*)c1; Benzoyl(4-COOH) = O=C(O)c1ccc(C(=O)*)cc1; Nip(3R) = O=C([C@@H]1CCCN([*:1])C1)[*:2]; Oic = O=C(O)[C@@H]1C[C@@H]2CCCC[C@@H]2N1; tBuAla = CC(C)(C)C[C@H](N)C(=O)O; PEG4 = NCCOCCOCCOCCOCCC(=O)O; Pen = CC(C)(S)[C@H](N)C(=O)O; NMeC = CN[C@@H](CS)C(=O)O; PEG3 = NCCOCCOCCOCCC(=O)O; Orn = NCCC[C@H](N)C(=O)O; Sar = CNCC(=O)O
# T1: Recombinant human MASP1 enzyme (fragment corresponding to amino acids 297-699, C-terminal His Tag) (human, UniProt P48740 297-699)
# T1 sequence: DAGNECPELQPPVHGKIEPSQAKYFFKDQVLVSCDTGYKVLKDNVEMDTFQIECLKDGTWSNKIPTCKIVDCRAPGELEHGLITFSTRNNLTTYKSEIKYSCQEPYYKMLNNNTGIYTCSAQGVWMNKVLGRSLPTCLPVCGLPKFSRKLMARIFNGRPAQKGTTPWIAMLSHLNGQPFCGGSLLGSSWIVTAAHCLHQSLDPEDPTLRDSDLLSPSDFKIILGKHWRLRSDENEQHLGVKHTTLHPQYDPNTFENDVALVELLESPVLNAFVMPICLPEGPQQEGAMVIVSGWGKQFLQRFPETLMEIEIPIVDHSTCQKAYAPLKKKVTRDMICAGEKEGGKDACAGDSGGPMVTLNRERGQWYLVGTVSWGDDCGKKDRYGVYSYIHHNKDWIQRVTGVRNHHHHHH
# Experiments:
# [1] = biological target: T1, Recombinant human MASP1 enzyme …; assay: cell-based or functional assay
# [2] = biological target: Recombinant human MASP2 enzyme (fragment corresponding to amino acids 297-686, C-terminal His Tag) (human, UniProt O00187 297-686); assay: cell-based or functional assay
# Chain of Recombinant human MASP2 enzyme (fragment corresponding to amino acids 297-686, C-terminal His Tag) (O00187 other isoform, or with tags, fused parts or gaps limits assumed): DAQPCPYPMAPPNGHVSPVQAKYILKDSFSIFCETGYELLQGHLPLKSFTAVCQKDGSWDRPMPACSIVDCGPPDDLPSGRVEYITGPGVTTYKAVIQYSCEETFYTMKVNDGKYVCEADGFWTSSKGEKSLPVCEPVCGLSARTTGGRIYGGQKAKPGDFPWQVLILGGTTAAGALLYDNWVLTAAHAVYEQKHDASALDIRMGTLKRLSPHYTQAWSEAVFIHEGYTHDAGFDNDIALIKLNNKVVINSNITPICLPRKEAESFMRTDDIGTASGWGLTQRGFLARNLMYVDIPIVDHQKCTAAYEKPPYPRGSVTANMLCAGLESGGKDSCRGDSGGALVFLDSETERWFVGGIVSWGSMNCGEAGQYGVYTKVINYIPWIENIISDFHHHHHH
binder,measurement,setting,value
[Orn]ICSRS[tBuAla]PPI[NMeC]IPD-OH (disulfide 3-11; N-terminus assumed; SMILES CC[C@H](C)[C@H](NC(=O)[C@@H](N)CCCN)C(=O)N[C@H]1CSSC[C@@H](C(=O)N[C@H](C(=O)N2CCC[C@H]2C(=O)N[C@@H](CC(=O)O)C(=O)O)[C@@H](C)CC)N(C)C(=O)[C@H]([C@@H](C)CC)NC(=O)[C@@H]2CCCN2C(=O)[C@@H]2CCCN2C(=O)[C@H](CC(C)(C)C)NC(=O)[C@H](CO)NC(=O)[C@H](CCCNC(=N)N)NC(=O)[C@H](CO)NC1=O) [(Orn)-IC+SRS-((tBu)A)-PPI-((N-Me)C)+IPD-OH],human MASP1 IC50,[1],5.85 nM
same,human MASP2 IC50,[2],175 nM
PICSRS[tBuAla]PPI[Pen]IPD-OH (disulfide 3-11; N-terminus assumed; SMILES CC[C@H](C)[C@H](NC(=O)[C@@H]1CCCN1)C(=O)N[C@H]1CSSC(C)(C)[C@@H](C(=O)N[C@H](C(=O)N2CCC[C@H]2C(=O)N[C@@H](CC(=O)O)C(=O)O)[C@@H](C)CC)NC(=O)[C@H]([C@@H](C)CC)NC(=O)[C@@H]2CCCN2C(=O)[C@@H]2CCCN2C(=O)[C@H](CC(C)(C)C)NC(=O)[C@H](CO)NC(=O)[C@H](CCCNC(=N)N)NC(=O)[C@H](CO)NC1=O) [(beta-P)-IC+SRS-((tBu)A)-PPI-(Pen)+IPD-OH],human MASP1 IC50,[1],3 nM
same,human MASP2 IC50,[2],35 nM
[Sar]ICSRS[tBuAla]PPI[Pen]IP[Phe(3-COOH)]-OH (disulfide 3-11; N-terminus assumed; SMILES CC[C@H](C)[C@H](NC(=O)CNC)C(=O)N[C@H]1CSSC(C)(C)[C@@H](C(=O)N[C@H](C(=O)N2CCC[C@H]2C(=O)N[C@@H](Cc2cccc(C(=O)O)c2)C(=O)O)[C@@H](C)CC)NC(=O)[C@H]([C@@H](C)CC)NC(=O)[C@@H]2CCCN2C(=O)[C@@H]2CCCN2C(=O)[C@H](CC(C)(C)C)NC(=O)[C@H](CO)NC(=O)[C@H](CCCNC(=N)N)NC(=O)[C@H](CO)NC1=O) [((N-Me)G)-IC+SRS-((tBu)A)-PPI-(Pen)+IP-((3-Carboxy)F)-OH],human MASP1 IC50,[1],2.8 nM
same,human MASP2 IC50,[2],25 nM
[Sar]ICSRSLP[Oic]I[Pen]IP[Phe(3-COOH)]-OH (disulfide 3-11; N-terminus assumed; SMILES CC[C@H](C)[C@H](NC(=O)CNC)C(=O)N[C@H]1CSSC(C)(C)[C@@H](C(=O)N[C@H](C(=O)N2CCC[C@H]2C(=O)N[C@@H](Cc2cccc(C(=O)O)c2)C(=O)O)[C@@H](C)CC)NC(=O)[C@H]([C@@H](C)CC)NC(=O)[C@@H]2C[C@@H]3CCCC[C@@H]3N2C(=O)[C@@H]2CCCN2C(=O)[C@H](CC(C)C)NC(=O)[C@H](CO)NC(=O)[C@H](CCCNC(=N)N)NC(=O)[C@H](CO)NC1=O) [((N-Me)G)-IC+SRSLP-(Oic)-I-(Pen)+IP-((3-Carboxy)F)-OH],human MASP1 IC50,[1],5.4 nM
same,human MASP2 IC50,[2],64 nM
[Sar]ICSRSLP[Oic]I[Pen]IPD[PEG3]-OH (disulfide 3-11; N-terminus assumed; SMILES CC[C@H](C)[C@H](NC(=O)CNC)C(=O)N[C@H]1CSSC(C)(C)[C@@H](C(=O)N[C@H](C(=O)N2CCC[C@H]2C(=O)N[C@@H](CC(=O)O)C(=O)NCCOCCOCCOCCC(=O)O)[C@@H](C)CC)NC(=O)[C@H]([C@@H](C)CC)NC(=O)[C@@H]2C[C@@H]3CCCC[C@@H]3N2C(=O)[C@@H]2CCCN2C(=O)[C@H](CC(C)C)NC(=O)[C@H](CO)NC(=O)[C@H](CCCNC(=N)N)NC(=O)[C@H](CO)NC1=O) [((N-Me)G)-IC+SRSLP-(Oic)-I-(Pen)+IPD-(PEG2(13 atoms))-OH],human MASP1 IC50,[1],5.5 nM
same,human MASP2 IC50,[2],120 nM
[Sar]ICSRS[tBuAla]PPI[Pen]IP[PEG4]-OH (disulfide 3-11; N-terminus assumed; SMILES CC[C@H](C)[C@H](NC(=O)CNC)C(=O)N[C@H]1CSSC(C)(C)[C@@H](C(=O)N[C@H](C(=O)N2CCC[C@H]2C(=O)NCCOCCOCCOCCOCCC(=O)O)[C@@H](C)CC)NC(=O)[C@H]([C@@H](C)CC)NC(=O)[C@@H]2CCCN2C(=O)[C@@H]2CCCN2C(=O)[C@H](CC(C)(C)C)NC(=O)[C@H](CO)NC(=O)[C@H](CCCNC(=N)N)NC(=O)[C@H](CO)NC1=O) [((N-Me)G)-IC+SRS-((tBu)A)-PPI-(Pen)+IP-(PEG3(16atoms))-OH],human MASP1 IC50,[1],2.1 nM
same,human MASP2 IC50,[2],35 nM
[Sar]ICSRS[tBuAla]PPI[Pen]IP[Orn]D-OH (disulfide 3-11; N-terminus assumed; SMILES CC[C@H](C)[C@H](NC(=O)CNC)C(=O)N[C@H]1CSSC(C)(C)[C@@H](C(=O)N[C@H](C(=O)N2CCC[C@H]2C(=O)N[C@@H](CCCN)C(=O)N[C@@H](CC(=O)O)C(=O)O)[C@@H](C)CC)NC(=O)[C@H]([C@@H](C)CC)NC(=O)[C@@H]2CCCN2C(=O)[C@@H]2CCCN2C(=O)[C@H](CC(C)(C)C)NC(=O)[C@H](CO)NC(=O)[C@H](CCCNC(=N)N)NC(=O)[C@H](CO)NC1=O) [((N-Me)G)-IC+SRS-((tBu)A)-PPI-(Pen)+IP-(Orn)-D-OH],human MASP1 IC50,[1],3.8 nM
same,human MASP2 IC50,[2],32 nM
[Sar]ICSRSLP[Oic]I[Pen]IPR-OH (disulfide 3-11; N-terminus assumed; SMILES CC[C@H](C)[C@H](NC(=O)CNC)C(=O)N[C@H]1CSSC(C)(C)[C@@H](C(=O)N[C@H](C(=O)N2CCC[C@H]2C(=O)N[C@@H](CCCNC(=N)N)C(=O)O)[C@@H](C)CC)NC(=O)[C@H]([C@@H](C)CC)NC(=O)[C@@H]2C[C@@H]3CCCC[C@@H]3N2C(=O)[C@@H]2CCCN2C(=O)[C@H](CC(C)C)NC(=O)[C@H](CO)NC(=O)[C@H](CCCNC(=N)N)NC(=O)[C@H](CO)NC1=O) [((N-Me)G)-IC+SRSLP-(Oic)-I-(Pen)+IPR-OH],human MASP1 IC50,[1],2.35 nM
same,human MASP2 IC50,[2],48 nM
[Nip(3R)]ICSRSLP[Oic]I[Pen]IPD-OH (disulfide 3-11; N-terminus assumed; SMILES CC[C@H](C)[C@H](NC(=O)[C@@H]1CCCNC1)C(=O)N[C@H]1CSSC(C)(C)[C@@H](C(=O)N[C@H](C(=O)N2CCC[C@H]2C(=O)N[C@@H](CC(=O)O)C(=O)O)[C@@H](C)CC)NC(=O)[C@H]([C@@H](C)CC)NC(=O)[C@@H]2C[C@@H]3CCCC[C@@H]3N2C(=O)[C@@H]2CCCN2C(=O)[C@H](CC(C)C)NC(=O)[C@H](CO)NC(=O)[C@H](CCCNC(=N)N)NC(=O)[C@H](CO)NC1=O) [((R)-Piperidine-3-Carboxylic Acid)-IC+SRSLP-(Oic)-I-(Pen)+IPD-OH],human MASP1 IC50,[1],5.2 nM
same,human MASP2 IC50,[2],110 nM
[X11]ICSRSLP[Oic]I[Pen]IPD-OH (disulfide 3-11; N-terminus assumed; SMILES CC[C@H](C)[C@H](NC(=O)[C@H]1CCCNC1)C(=O)N[C@H]1CSSC(C)(C)[C@@H](C(=O)N[C@H](C(=O)N2CCC[C@H]2C(=O)N[C@@H](CC(=O)O)C(=O)O)[C@@H](C)CC)NC(=O)[C@H]([C@@H](C)CC)NC(=O)[C@@H]2C[C@@H]3CCCC[C@@H]3N2C(=O)[C@@H]2CCCN2C(=O)[C@H](CC(C)C)NC(=O)[C@H](CO)NC(=O)[C@H](CCCNC(=N)N)NC(=O)[C@H](CO)NC1=O) [((S)-Piperidine-3-Carboxylic Acid)-IC+SRSLP-(Oic)-I-(Pen)+IPD-OH],human MASP1 IC50,[1],2.4 nM
same,human MASP2 IC50,[2],32 nM
{Benzoyl(4-COOH)}-GICSRSLP[Oic]I[Pen]IPD-OH (disulfide 3-11; SMILES CC[C@H](C)[C@H](NC(=O)CNC(=O)c1ccc(C(=O)O)cc1)C(=O)N[C@H]1CSSC(C)(C)[C@@H](C(=O)N[C@H](C(=O)N2CCC[C@H]2C(=O)N[C@@H](CC(=O)O)C(=O)O)[C@@H](C)CC)NC(=O)[C@H]([C@@H](C)CC)NC(=O)[C@@H]2C[C@@H]3CCCC[C@@H]3N2C(=O)[C@@H]2CCCN2C(=O)[C@H](CC(C)C)NC(=O)[C@H](CO)NC(=O)[C@H](CCCNC(=N)N)NC(=O)[C@H](CO)NC1=O) [(4-Carboxybenzoic acid)-GIC+SRSLP-(Oic)-I-(Pen)+IPD-OH],human MASP1 IC50,[1],19.5 nM
same,human MASP2 IC50,[2],21 nM
{Benzoyl(3-COOH)}-GICSRSLP[Oic]I[Pen]IPD-OH (disulfide 3-11; SMILES CC[C@H](C)[C@H](NC(=O)CNC(=O)c1cccc(C(=O)O)c1)C(=O)N[C@H]1CSSC(C)(C)[C@@H](C(=O)N[C@H](C(=O)N2CCC[C@H]2C(=O)N[C@@H](CC(=O)O)C(=O)O)[C@@H](C)CC)NC(=O)[C@H]([C@@H](C)CC)NC(=O)[C@@H]2C[C@@H]3CCCC[C@@H]3N2C(=O)[C@@H]2CCCN2C(=O)[C@H](CC(C)C)NC(=O)[C@H](CO)NC(=O)[C@H](CCCNC(=N)N)NC(=O)[C@H](CO)NC1=O) [(3-Carboxybenzoic acid)-GIC+SRSLP-(Oic)-I-(Pen)+IPD-OH],human MASP1 IC50,[1],58 nM
same,human MASP2 IC50,[2],43 nM
[Sar]ICSRSLP[Oic]I[Pen]IPT-OH (disulfide 3-11; N-terminus assumed; SMILES CC[C@H](C)[C@H](NC(=O)CNC)C(=O)N[C@H]1CSSC(C)(C)[C@@H](C(=O)N[C@H](C(=O)N2CCC[C@H]2C(=O)N[C@H](C(=O)O)[C@@H](C)O)[C@@H](C)CC)NC(=O)[C@H]([C@@H](C)CC)NC(=O)[C@@H]2C[C@@H]3CCCC[C@@H]3N2C(=O)[C@@H]2CCCN2C(=O)[C@H](CC(C)C)NC(=O)[C@H](CO)NC(=O)[C@H](CCCNC(=N)N)NC(=O)[C@H](CO)NC1=O) [((N-Me)G)-IC+SRSLP-(Oic)-I-(Pen)+IPT-OH],human MASP1 IC50,[1],3 nM
same,human MASP2 IC50,[2],180 nM
